Experimental data taken from paper PMC2564731 (Molecular Systems Biology, 2008).

Experiments:
Experiment in all cases: pull-down
[1] = target: T1, ENHANCER OF GLABRA3 (EGL3), recombinant GST or His fusion protein (Arabidopsis, UniProt Q9CAD0 1-596)
T1 sequence: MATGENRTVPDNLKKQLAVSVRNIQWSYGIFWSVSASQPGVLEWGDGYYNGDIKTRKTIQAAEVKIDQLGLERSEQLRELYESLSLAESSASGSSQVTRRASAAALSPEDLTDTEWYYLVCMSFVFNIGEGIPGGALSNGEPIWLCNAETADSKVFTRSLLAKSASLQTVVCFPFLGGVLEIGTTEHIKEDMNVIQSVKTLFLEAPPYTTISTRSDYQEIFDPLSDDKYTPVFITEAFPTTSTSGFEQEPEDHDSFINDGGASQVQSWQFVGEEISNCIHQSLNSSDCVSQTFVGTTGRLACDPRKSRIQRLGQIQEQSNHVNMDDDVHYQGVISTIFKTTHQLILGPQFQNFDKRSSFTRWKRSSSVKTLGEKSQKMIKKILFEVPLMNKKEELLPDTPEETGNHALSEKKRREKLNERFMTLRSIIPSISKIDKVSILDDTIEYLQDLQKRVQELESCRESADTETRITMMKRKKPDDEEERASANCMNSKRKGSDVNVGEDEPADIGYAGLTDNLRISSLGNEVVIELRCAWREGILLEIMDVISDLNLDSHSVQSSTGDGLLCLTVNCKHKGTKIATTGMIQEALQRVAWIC

[2] = target: T2, GLABRA1 (GL1), recombinant GST or His fusion protein (Arabidopsis, UniProt P27900 1-228)
T2 sequence: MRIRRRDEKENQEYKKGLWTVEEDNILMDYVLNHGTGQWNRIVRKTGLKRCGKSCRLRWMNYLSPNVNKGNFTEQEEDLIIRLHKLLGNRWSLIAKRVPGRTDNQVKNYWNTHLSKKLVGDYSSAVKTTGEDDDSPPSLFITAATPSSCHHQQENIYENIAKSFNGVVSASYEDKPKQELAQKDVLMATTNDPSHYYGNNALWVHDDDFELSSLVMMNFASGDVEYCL

[3] = target: T3, GLABRA3 (GL3), recombinant GST or His fusion protein (Arabidopsis, UniProt Q9FN69 1-637)
T3 sequence: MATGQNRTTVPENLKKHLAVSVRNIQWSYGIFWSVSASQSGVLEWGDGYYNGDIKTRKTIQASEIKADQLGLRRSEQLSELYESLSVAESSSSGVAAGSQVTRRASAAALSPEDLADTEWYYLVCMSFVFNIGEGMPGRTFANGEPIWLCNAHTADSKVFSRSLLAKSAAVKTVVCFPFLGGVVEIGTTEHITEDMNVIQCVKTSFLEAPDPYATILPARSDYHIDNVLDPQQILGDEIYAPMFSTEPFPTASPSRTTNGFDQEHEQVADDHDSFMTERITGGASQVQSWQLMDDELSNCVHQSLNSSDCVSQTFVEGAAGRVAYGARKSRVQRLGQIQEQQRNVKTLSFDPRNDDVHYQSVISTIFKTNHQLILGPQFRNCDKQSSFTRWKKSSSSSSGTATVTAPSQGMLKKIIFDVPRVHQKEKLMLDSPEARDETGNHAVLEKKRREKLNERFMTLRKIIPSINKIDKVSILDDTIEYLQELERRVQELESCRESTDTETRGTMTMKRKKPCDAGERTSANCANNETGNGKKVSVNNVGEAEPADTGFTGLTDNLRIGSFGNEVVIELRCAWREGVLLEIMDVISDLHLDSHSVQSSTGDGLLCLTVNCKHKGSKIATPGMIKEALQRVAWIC

Measured: binding result

B1: TRIPTYCHON (TRY), recombinant GST or His fusion protein (natural protein)
chain: MDNTDRRRRRKQHKIALHDSEEVSSIEWEFINMTEQEEDLIFRMYRLVGDRWDLIAGRVPGRQPEEIERYWIMRNSEGFADKRRQLHSSSHKHTKPHRPRFSIYPS
binds: all assays above
